Results: article doi:10.1101/2025.10.10.681541, “Visualizing the mechanism of quinol oxidation and inhibition of a bd-type oxidase using cryo-EM” (bioRxiv, 2025)

How the values were obtained:
[1] = molecular target: the molecule itself; assay: cryo-EM structure; purified Ecbd in LMNG micelles (unbound, Aurachin D bound) or in MSP1D1 PC nanodiscs doped with 5% menaquinone-9; monomeric and dimeric particles on the same grids
[2] = molecular target: T1, E. coli cytochrome bd-I subunit CydA (E. coli, UniProt P0ABJ9 1-522); assay: as above; details: both partners purified
T1 construct: CydA, subunit of E. coli cytochrome bd-I (Ecbd); harbours hemes b558, b595 and d and the Q-loop; Co-expressed and co-purified with CydB, CydX and CydH; never isolated on its own
T1 sequence: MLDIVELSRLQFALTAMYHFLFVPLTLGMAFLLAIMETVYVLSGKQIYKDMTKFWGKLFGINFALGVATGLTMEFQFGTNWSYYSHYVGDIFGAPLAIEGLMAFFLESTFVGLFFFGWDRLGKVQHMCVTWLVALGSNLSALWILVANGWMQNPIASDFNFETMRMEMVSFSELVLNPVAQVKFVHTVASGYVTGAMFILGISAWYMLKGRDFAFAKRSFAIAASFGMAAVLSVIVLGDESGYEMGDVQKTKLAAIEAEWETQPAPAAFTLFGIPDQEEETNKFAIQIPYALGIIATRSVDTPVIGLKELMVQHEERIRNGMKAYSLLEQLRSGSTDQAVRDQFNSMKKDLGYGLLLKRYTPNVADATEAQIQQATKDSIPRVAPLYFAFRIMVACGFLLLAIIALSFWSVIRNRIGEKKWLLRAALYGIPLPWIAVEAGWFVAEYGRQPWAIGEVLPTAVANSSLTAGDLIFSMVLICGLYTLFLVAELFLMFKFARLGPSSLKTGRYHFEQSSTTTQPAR

B1: E. coli cytochrome bd-I subunit CydX (natural protein)
chain: MWYFAWILGTLLACSFGVITALALEHVESGKAGQEDI
notes: CydX, single-helix subunit of E. coli cytochrome bd-I (Ecbd)
Q: Does B1 bind [1]?
A: Result: binds

Q: Does B1 bind [2]?
A: Result: binds
